Measurements taken from paper PMC6548343 (Journal of Molecular Cell Biology, 2018).
Where “and” joins values, the source holds several entries; their conditions need not be identical. Identical values can stand only once.

Target: the molecule itself
Experiment: EM classification and 3D reconstruction; INO80 sub-complexes and separated Rvb1/Rvb2 rings in the Mono Q fraction of the Ino80-2×FLAG purification

B1: Rvb1/Rvb2 (complex, S. cerevisiae)
chain 1: MVAISEVKENPGVNSSNSGAVTRTAAHTHIKGLGLDESGVAKRVEGGFVGQIEAREACGVIVDLIKAKKMSGRAILLAGGPSTGKTALALAISQELGPKVPFCPLVGSELYSVEVKKTETLMENFRRAIGLRIKETKEVYEGEVTELTPEDAENPLGGYGKTISHVIVGLKSAKGTKTLRLDPTIYESIQREKVSIGDVIYIEANTGAVKRVGRSDAYATEFDLETEEYVPLPKGEVHKKKEIVQDVTLHDLDVANARPQGGQDVISMMGQLLKPKKTEITEKLRQEVNKVVAKYIDQGVAELIPGVLFIDEVNMLDIEIFTYLNKALESNIAPVVVLASNRGMTTVRGTEDVISPHGVPPDLIDRLLIVRTLPYDKDEIRTIIERRATVERLQVESSALDLLATMGTETSLRYALQLLAPCGILAQTSNRKEIVVNDVNEAKLLFLDAKRSTKILETSANYL
chain 2: MSIQTSDPNETSDLKSLSLIAAHSHITGLGLDENLQPRPTSEGMVGQLQARRAAGVILKMVQNGTIAGRAVLVAGPPSTGKTALAMGVSQSLGKDVPFTAIAGSEIFSLELSKTEALTQAFRKSIGIKIKEETELIEGEVVEIQIDRSITGGHKQGKLTIKTTDMETIYELGNKMIDGLTKEKVLAGDVISIDKASGKITKLGRSFARSRDYDAMGADTRFVQCPEGELQKRKTVVHTVSLHEIDVINSRTQGFLALFTGDTGEIRSEVRDQINTKVAEWKEEGKAEIVPGVLFIDEVHMLDIECFSFINRALEDEFAPIVMMATNRGVSKTRGTNYKSPHGLPLDLLDRSIIITTKSYNEQEIKTILSIRAQEEEVELSSDALDLLTKTGVETSLRYSSNLISVAQQIAMKRKNNTVEVEDVKRAYLLFLDSARSVKYVQENESQYIDDQGNVQISIAKSADPDAMDTTE
notes: Rvb1, AAA+ ATPase subunit, S. cerevisiae; Rvb2, AAA+ ATPase subunit, S. cerevisiae; Seen as a hexameric ring in INO80 and as free hexamers and dodecamers; The fitted models PDB 2XSZ and 5OAF are of the human proteins; also called Rvb1/Rvb2 hexameric ring; Rvb1-Rvb2 ring; source: endogenous, S. cerevisiae, co-purified with tagged Ino80 (FLAG resin, Mono Q)
- stoichiometry N: 12 and 6
